# Reference: PMC11886768 (2025)
# B1: CRY1 (third protein in the mammalian three-hybrid assay) [Arabidopsis] / E-COP1 [Arabidopsis] (parent complex)
# chain 1: MSGSVSGCGSGGCSIVWFRRDLRVEDNPALAAAVRAGPVIALFVWAPEEEGHYHPGRVSRWWLKNSLAQLDSSLRSLGTCLITKRSTDSVASLLDVVKSTGASQIFFNHLYDPLSLVRDHRAKDVLTAQGIAVRSFNADLLYEPWEVTDELGRPFSMFAAFWERCLSMPYDPESPLLPPKKIISGDVSKCVADPLVFEDDSEKGSNALLARAWSPGWSNGDKALTTFINGPLLEYSKNRRKADSATTSFLSPHLHFGEVSVRKVFHLVRIKQVAWANEGNEAGEESVNLFLKSIGLREYSRYISFNHPYSHERPLLGHLKFFPWAVDENYFKAWRQGRTGYPLVDAGMRELWATGWLHDRIRVVVSSFFVKVLQLPWRWGMKYFWDTLLDADLESDALGWQYITGTLPDSREFDRIDNPQFEGYKFDPNGEYVRRWLPELSRLPTDWIHHPWNAPESVLQAAGIELGSNYPLPIVGLDEAKARLHEALSQMWQLEAASRAAIENGSEEGLGDSAEVEEAPIEFPRDITMEETEPTRLNPNRRYEDQMVPSITSSLIRPEEDEESSLNLRNSVGDSRAEVPRNMVNTNQAQQRRAEPASNQVTAMIPEFNIRIVAESTEDSTAESSSSGRRERSGGIVPEWSPGYSEQFPSEENGIGGGSTTSSYLQNHHEILNWRRLSQTG
# chain 2: MEEISTDPVVPAVKPDPRTSSVGEGANRHENDDGGSGGSEIGAPDLDKDLLCPICMQIIKDAFLTACGHSFCYMCIITHLRNKSDCPCCSQHLTNNQLYPNFLLDKLLKKTSARHVSKTASPLDQFREALQRGCDVSIKEVDNLLTLLAERKRKMEQEEAERNMQILLDFLHCLRKQKVDELNEVQTDLQYIKEDINAVERHRIDLYRARDRYSVKLRMLGDDPSTRNAWPHEKNQIGFNSNSLSIRGGNFVGNYQNKKVEGKAQGSSHGLPKKDALSGSDSQSLNQSTVSMARKKRIHAQFNDLQECYLQKRRQLADQPNSKQENDKSVVRREGYSNGLADFQSVLTTFTRYSRLRVIAEIRHGDIFHSANIVSSIEFDRDDELFATAGVSRCIKVFDFSSVVNEPADMQCPIVEMSTRSKLSCLSWNKHEKNHIASSDYEGIVTVWDVTTRQSLMEYEEHEKRAWSVDFSRTEPSMLVSGSDDCKVKVWCTRQEASVINIDMKANICCVKYNPGSSNYIAVGSADHHIHYYDLRNISQPLHVFSGHKKAVSYVKFLSNNELASASTDSTLRLWDVKDNLPVRTFRGHTNEKNFVGLTVNSEYLACGSETNEVYVYHKEITRPVTSHRFGSPDMDDAEEEAGSYFISAVCWKSDSPTMLTANSQGTIKVLVLAA
# Variants of: B1
# Experiment: luciferase complementation imaging (LCI); transfected N. benthamiana leaves, n = 14, CCD camera; value is the mean ('+'); median about 0.44, box about 0.22-0.68; parent: 1; read off a plot
row,ratio to parent,Variant
1,~0.43,"chain 1 V548A, chain 1 P549A"
